Where no end group is shown, it is not given here. The star is where a group is joined. Biotin = O=C1N[C@H]2[C@H](CS[C@H]2CCCCC(=O)*)N1; Ahx = NCCCCCC(=O)O

This note sets out measurements from paper PMC3504387 (Chemmedchem, 2012).

Experiment [1] concerns the target T1, GST–PPARγ fusion protein (purified ligand binding domain of PPARγ).
T1 chain: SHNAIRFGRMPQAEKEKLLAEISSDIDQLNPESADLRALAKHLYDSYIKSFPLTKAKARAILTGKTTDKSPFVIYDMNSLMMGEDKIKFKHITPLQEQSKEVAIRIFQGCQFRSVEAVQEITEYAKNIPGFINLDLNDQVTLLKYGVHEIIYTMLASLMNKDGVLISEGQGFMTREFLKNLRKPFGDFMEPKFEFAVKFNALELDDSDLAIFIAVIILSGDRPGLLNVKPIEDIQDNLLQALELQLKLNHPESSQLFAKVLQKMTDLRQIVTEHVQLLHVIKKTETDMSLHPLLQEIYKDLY
The experiment can be described thus: FRET or BRET; homogeneous TR-FRET as a1, 12-concentration dose–response of muraglitazar; the EC50 is of the compound; delta ratio in % of the reference compound at 10 μM (RO4899100 for PPARα, edaglitazone for PPARγ). To be noted: both partners purified. A general note: Bioluminescence resonance energy transfer reports proximity on the nanometre scale.

Experiment [2] deals with T1, GST–PPARγ fusion protein (purified …). The experiment can be described thus: FRET or BRET; homogeneous TR-FRET as a1, 12-concentration dose–response of farglitazar; the EC50 is of the compound; delta ratio in % of the reference compound edaglitazone at 10 μM. Conditions: both partners purified.
For experiment [3] the target is unchanged. The experiment can be described thus: FRET or BRET; homogeneous TR-FRET as a1, 12-concentration dose–response of pioglitazone; the EC50 is of the compound; delta ratio in % of the reference compound at 10 μM (RO4899100 for PPARα, edaglitazone for PPARγ). To be noted: both partners purified.
Experiment [4] has the same target. The experiment can be described thus: FRET or BRET; homogeneous TR-FRET as a1, 12-concentration dose–response of RO4899100; the EC50 is of the compound; delta ratio in % of the reference compound at 10 μM (RO4899100 for PPARα, edaglitazone for PPARγ). To be noted: both partners purified.
Experiment [5] has the same target. The experiment can be described thus: FRET or BRET; homogeneous TR-FRET as a1, 12-concentration dose–response of edaglitazone; the EC50 is of the compound; delta ratio in % of the reference compound at 10 μM (RO4899100 for PPARα, edaglitazone for PPARγ). Conditions: both partners purified.
For experiment [6] the target is unchanged. The experiment can be described thus: FRET or BRET; homogeneous TR-FRET as a1, 12-concentration dose–response of rosiglitazone; the EC50 is of the compound; delta ratio in % of the reference compound at 10 μM (RO4899100 for PPARα, edaglitazone for PPARγ). Conditions: both partners purified.
The target is the same in experiment [7]. The experiment can be described thus: FRET or BRET; homogeneous TR-FRET as a1, 12-concentration dose–response of aleglitazar; the EC50 is of the compound; delta ratio in % of the reference compound at 10 μM (RO4899100 for PPARα, edaglitazone for PPARγ). To be noted: both partners purified.
For experiment [8] the target is unchanged. The experiment can be described thus: FRET or BRET; homogeneous TR-FRET as a1, 12-concentration dose–response of tesaglitazar; the EC50 is of the compound; delta ratio in % of the reference compound at 10 μM (RO4899100 for PPARα, edaglitazone for PPARγ). To be noted: both partners purified.
In experiment [9] the target is T2, GST–PPARα fusion protein (purified ligand binding domain of PPARα).
T2 sequence (Q07869 whole entry, species assumed, looked up): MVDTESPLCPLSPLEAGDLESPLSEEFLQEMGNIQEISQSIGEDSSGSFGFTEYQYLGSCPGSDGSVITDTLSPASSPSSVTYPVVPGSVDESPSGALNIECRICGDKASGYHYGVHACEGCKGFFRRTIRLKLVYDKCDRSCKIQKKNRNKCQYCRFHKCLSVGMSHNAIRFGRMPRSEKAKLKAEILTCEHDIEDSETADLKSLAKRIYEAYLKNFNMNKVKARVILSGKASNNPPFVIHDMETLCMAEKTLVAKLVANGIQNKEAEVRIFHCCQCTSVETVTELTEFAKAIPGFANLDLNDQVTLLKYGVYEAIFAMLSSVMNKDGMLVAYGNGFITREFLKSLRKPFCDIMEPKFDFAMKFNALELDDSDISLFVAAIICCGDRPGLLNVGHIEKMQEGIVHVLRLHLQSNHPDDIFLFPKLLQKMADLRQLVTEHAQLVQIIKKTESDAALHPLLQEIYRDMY
The experiment can be described thus: FRET or BRET; homogeneous TR-FRET as a1, 12-concentration dose–response of aleglitazar; the EC50 is of the compound; delta ratio in % of the reference compound at 10 μM (RO4899100 for PPARα, edaglitazone for PPARγ).

Experiment [10] has the same target. The experiment can be described thus: FRET or BRET; homogeneous TR-FRET as a1, 12-concentration dose–response of rosiglitazone; the EC50 is of the compound; delta ratio in % of the reference compound at 10 μM (RO4899100 for PPARα, edaglitazone for PPARγ).
Experiment [11] shares this target. The experiment can be described thus: FRET or BRET; homogeneous TR-FRET as a1, 12-concentration dose–response of muraglitazar; the EC50 is of the compound; delta ratio in % of the reference compound at 10 μM (RO4899100 for PPARα, edaglitazone for PPARγ).
The target is the same in experiment [12]. The experiment can be described thus: FRET or BRET; homogeneous TR-FRET as a1, 12-concentration dose–response of fenofibric acid; the EC50 is of the compound; delta ratio in % of the reference compound RO4899100 at 10 μM.
Experiment [13] shares this target. The experiment can be described thus: FRET or BRET; homogeneous TR-FRET as a1, 12-concentration dose–response of RO4899100; the EC50 is of the compound; delta ratio in % of the reference compound at 10 μM (RO4899100 for PPARα, edaglitazone for PPARγ).
The target is the same in experiment [14]. The experiment can be described thus: FRET or BRET; homogeneous TR-FRET as a1, 12-concentration dose–response of tesaglitazar; the EC50 is of the compound; delta ratio in % of the reference compound at 10 μM (RO4899100 for PPARα, edaglitazone for PPARγ).
The target is the same in experiment [15]. The experiment can be described thus: FRET or BRET; homogeneous TR-FRET as a1, 12-concentration dose–response of edaglitazone; the EC50 is of the compound; delta ratio in % of the reference compound at 10 μM (RO4899100 for PPARα, edaglitazone for PPARγ).

B1: TRAP220 cofactor peptide (thyroid hormone receptor-associated protein complex 220 kDa component, motif 2) (peptide)
peptide: {Biotin-Ahx}-GNTKNHPMLMNLLKDNPAQDF
notes: thyroid hormone receptor-associated protein complex 220 kDa component (TRAP220), motif 2, residues 637-657; also called TRAP220_M2; TRAP220 M2; source: synthetic peptide (Jerini or Biosynthan, Berlin)
Regarding B1, the “EC50 of muraglitazar for recruitment” value in experiment [1] turned out to be 6.2 nM. For the same molecule, in [2], the “EC50 of farglitazar for recruitment” value was determined as 3.5 nM. In addition, the “EC50 of pioglitazone for recruitment” value in [3] amounted to 431 nM. In addition, in experiment [4], the “EC50 of RO4899100 for recruitment” value came out at 4410 nM. Besides, the “EC50 of edaglitazone for recruitment” value in experiment [5] came to 9.5 nM. Further, in [6], the “EC50 of rosiglitazone for recruitment” value was determined as 41.3 nM. Moreover, the “EC50 of aleglitazar for recruitment” value in experiment [7] is 3.2 nM. In experiment [8], the “EC50 of tesaglitazar for recruitment” value amounted to 31.6 nM.

B2: SRC1_M2 cofactor peptide (steroid receptor co-activator 1, motif 2) (peptide)
peptide: {Biotin-Ahx}-CPSSHSSLTERHKILHRLLQEGSPS
notes: source: synthetic peptide (Jerini or Biosynthan, Berlin)
In the case of B2, the “EC50 of muraglitazar for recruitment” value in [1] is 5.7 nM. In experiment [2], the “EC50 of farglitazar for recruitment” value came to 3.8 nM. In addition, the “EC50 of pioglitazone for recruitment” value in [3] turned out to be 196 nM. In addition, in experiment [4], the “EC50 of RO4899100 for recruitment” value was 2080 nM. Moreover, the “EC50 of edaglitazone for recruitment” value in [5] turned out to be 9.8 nM. The “EC50 of rosiglitazone for recruitment” value in [6] was determined as 18.5 nM. For the same molecule, in [7], the “EC50 of aleglitazar for recruitment” value worked out at 3.2 nM. The “EC50 of tesaglitazar for recruitment” value in [8] came out at 24.4 nM.

B3: CBP cofactor peptide (cAMP responsive element binding protein (CREB)-binding protein) (peptide)
peptide: {Biotin-Ahx}-SGNLVPDAASKHKQLSELLRGGSGS
notes: as for B2
On to B3, for which, in experiment [1], the “EC50 of muraglitazar for recruitment” value is 4.3 nM. Moreover, in experiment [2], the “EC50 of farglitazar for recruitment” value was 3 nM. For the same molecule, the “EC50 of pioglitazone for recruitment” value in experiment [3] turned out to be 79.1 nM. Also, in experiment [4], the “EC50 of RO4899100 for recruitment” value was 1990 nM. The “EC50 of edaglitazone for recruitment” value in [5] is 7.2 nM. For the same molecule, the “EC50 of rosiglitazone for recruitment” value in experiment [6] was determined as 10.4 nM. The “EC50 of aleglitazar for recruitment” value in [7] turned out to be 3.3 nM. In addition, the “EC50 of tesaglitazar for recruitment” value in [8] turned out to be 13.9 nM.

B4: SRC1_M4 cofactor peptide (steroid receptor co-activator 1, motif 4) (peptide)
peptide: {Biotin-Ahx}-TSGPQTPQAQQKSLLQQLLTE
notes: as for B2
As to B4, the “EC50 of muraglitazar for recruitment” value in experiment [1] was 6.1 nM. Further, the “EC50 of farglitazar for recruitment” value in [2] was 3.3 nM. In experiment [3], the “EC50 of pioglitazone for recruitment” value is 222 nM. Further, the “EC50 of RO4899100 for recruitment” value in experiment [4] is 1450 nM. Moreover, the “EC50 of rosiglitazone for recruitment” value in experiment [6] was found to be 23.5 nM. Moreover, the “EC50 of aleglitazar for recruitment” value in [7] turned out to be 3.4 nM. Further, the “EC50 of tesaglitazar for recruitment” value in [8] came to 25.5 nM.

B5: SRC1_M3 cofactor peptide (steroid receptor co-activator 1, motif 3) (peptide)
peptide: {Biotin-Ahx}-LDASKKKESKDHQLLRYLLDKDEKD
notes: as for B2
With B5, the “EC50 of muraglitazar for recruitment” value in experiment [1] is 37.4 nM. Moreover, the “EC50 of farglitazar for recruitment” value in experiment [2] came to 12.1 nM. Further, the “EC50 of pioglitazone for recruitment” value in experiment [3] was determined as 2120 nM. For the same molecule, in experiment [9], the EC50 of aleglitazar for recruitment came to 2.4 nM and the delta ratio with aleglitazar was 53%. For the same molecule, in [10], the EC50 of rosiglitazone for recruitment is 3070 nM and the delta ratio with rosiglitazone is 21%. For the same molecule, the “EC50 of edaglitazone for recruitment” value in experiment [5] is 38.1 nM. Besides, in experiment [6], the “EC50 of rosiglitazone for recruitment” value worked out at 241 nM. Besides, in [11], the EC50 of muraglitazar for recruitment worked out at 8.4 nM and the delta ratio with muraglitazar was determined as 23%. Moreover, in [7], the “EC50 of aleglitazar for recruitment” value was 11.3 nM. Further, in experiment [12], the EC50 of fenofibric acid for recruitment was 3.45 µM and the delta ratio with fenofibric acid came out at 47%. Moreover, the “EC50 of tesaglitazar for recruitment” value in experiment [8] was 196 nM. The EC50 of RO4899100 for recruitment in experiment [13] amounted to 4.9 nM. In [14], the EC50 of tesaglitazar for recruitment stood at 111 nM and the delta ratio with tesaglitazar came out at 52%.

B6: SRC1_M1 cofactor peptide (steroid receptor co-activator 1, motif 1) (peptide)
peptide: {Biotin-Ahx}-DSKYSQTSHKLVQLLTTTAEQQLRH
notes: as for B2
B6: the “EC50 of muraglitazar for recruitment” value in [1] is 35.6 nM. For the same molecule, the “EC50 of farglitazar for recruitment” value in experiment [2] was found to be 8.6 nM. For the same molecule, the “EC50 of pioglitazone for recruitment” value in experiment [3] came to 2260 nM. For the same molecule, in experiment [9], the EC50 of aleglitazar for recruitment came out at 2.9 nM and the delta ratio with aleglitazar was 94%. Further, in experiment [10], the EC50 of rosiglitazone for recruitment came to 2630 nM and the delta ratio with rosiglitazone was determined as 20%. Moreover, the “EC50 of edaglitazone for recruitment” value in experiment [5] was found to be 38.1 nM. Further, the “EC50 of rosiglitazone for recruitment” value in experiment [6] is 240 nM. Besides, in experiment [11], the EC50 of muraglitazar for recruitment was 186 nM and the delta ratio with muraglitazar amounted to 74%. Moreover, in experiment [7], the “EC50 of aleglitazar for recruitment” value was 11 nM. Further, in [15], the EC50 of edaglitazone for recruitment was 867 nM and the delta ratio with edaglitazone was 41%. In addition, in [12], the EC50 of fenofibric acid for recruitment is 4.36 µM and the delta ratio with fenofibric acid is 39%. Besides, the “EC50 of tesaglitazar for recruitment” value in experiment [8] turned out to be 226 nM. The EC50 of RO4899100 for recruitment in experiment [13] was 16.1 nM. For the same molecule, in [14], the EC50 of tesaglitazar for recruitment is 427 nM.
